Results taken from the supplement of paper PMC7125110.
± gives the standard error. Variants at the floor of the assay were thinned out.

B1: glmS ribozyme (parent)
chain: AUAAAAGCGCCAGAACUACAGAAAUGUAGUUGACGAGGAGGAGGUUUAUCGAAUUUUCGGCGGAUGCCUCCAAA

Tests used:
Settings in all cases: with glucosamine-6-phosphate
glucosamine-6-phosphate [1] = variants of: B1; experiment: self-cleavage kobs at 160 uM GlcN6P; higher = faster cleavage; RNA array
In short: (§1)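 Glucosamine-6-phosphate (40 μM to 10 mM) in HEPES/KCl/Mg(OAc)2 buffer was flowed over sequenced MiSeq chips, and tiles were imaged over ~14 h. Barcoded ribozyme variants there had been transcribed in situ by E. coli RNA polymerase and were tracked through a hybridised Cy3 probe at 37 °C. One- or two-exponential decay fits to per-tile medians, normalised to baseline and to non-cleaving reference variants, gave kobs. kcat and KM came from weighted Michaelis–Menten fits across concentrations.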

glucosamine-6-phosphate [2] = variants of: B1; experiment: self-cleavage kobs at 640 uM GlcN6P; higher = faster cleavage; RNA array
In short: as §1

glucosamine-6-phosphate [3] = variants of: B1; experiment: self-cleavage kobs at 2500 uM GlcN6P; higher = faster cleavage; RNA array
In short: as §1

glucosamine-6-phosphate [4] = variants of: B1; experiment: self-cleavage kobs at 10000 uM GlcN6P; higher = faster cleavage; RNA array
In short: as §1

Variant	self-cleavage kobs at 160 uM GlcN6P (glucosamine-6-phosphate [1]) [s⁻¹]	self-cleavage kobs at 640 uM GlcN6P (glucosamine-6-phosphate [2]) [s⁻¹]	self-cleavage kobs at 2500 uM GlcN6P (glucosamine-6-phosphate [3]) [s⁻¹]	self-cleavage kobs at 10000 uM GlcN6P (glucosamine-6-phosphate [4]) [s⁻¹]
AUAAAAGCGCCAGAACUACAGAAAUGUAGUUGCCAAGGAGGAGGUUUAUCGAAUUUUCGGCGGAUGCCUCCAAA [A33C G35A]	< 1e-05	< 1e-05	< 1e-05	< 1e-05
AUAAAAGCGCCAGCACUACAGAAAUGUAGUUGACGGGGAGGAGGUGUAUCGAAUUUUCGGCGGAAGCCUCCAAA [A14C A36G U46G U65A]	< 1e-05	< 1e-05		
AUAAAAGCGCCAGAACUACAGAAAUGUAGUUGGCGAGGAGGAGGUUUAUCGAAUUUUCGGCGGAUGGCUACAAA [A33G C67G C70A]	4.49e-05 ± 2.2e-05			
AUAAAAGCGCCAGAACUACAGAAAUGUAGUUGACGAGGCGGAGGUUUAACGAAUUUUCGGUGGAUGCGUCCAAA [A39C U49A C61U C68G]	< 1e-05		< 1e-05	
AUAAAAGCGCCAGAACUACAGAAAUGUAGUUGACGAGGAGGAGGUUUAUCGAAUUUUGGGCGGAUGCCUACAAA [C58G C70A]	0.000411 ± 0.00017	4.04e-05 ± 1.9e-05	5.93e-05 ± 1.4e-05	
AUAAAAGAGCCAGACCUACAGAAAUGUAGUUGAAGAGAAGGAGGUUUAUCGAAUUUUCGGCGGAUGCGUCCAAA [C8A A15C C34A G38A C68G]	0.000422 ± 0.00011	0.000341 ± 8.5e-05	0.00055 ± 0.00013	
AUAAAAGCGCCAGAAGUACAGAAAUGUAGUUGACGAGGAGGAGGUUUAUCGAAUUUUCGGCGGAUGGCUCCAAA [C16G C67G]	0.000347 ± 0.00013	9.56e-05 ± 1.7e-05	8.7e-05 ± 1.4e-05	6.6e-05 ± 7e-06
AUAAAAUCGCCAGAAGUACAGAAAUGUAGUUGACGAGGAGGAUGUUUAUCGAAUUUUCGGCGGAUGGCUCCAAA [G7U C16G G43U C67G]	< 1e-05	< 1e-05		
AUAAAAGCGACAGAACUACAGAAAUGUAGUGGACGAGGAGGUGGUUUAUCGAAUUUUCGGCGGAUGCCUCCAAA [C10A U31G A42U]	< 1e-05	< 1e-05	< 1e-05	
AUAAAAGCGCCAGAACUACAGAAAUGUAGUUGACAAGGAGCAGGUUUAUCGAAUUUUCGGCGGAUGCCUCCAAA [G35A G41C]	< 1e-05	< 1e-05		
AUAAAAGCGCCAGAACUACAGAAAUGUAGUUGACGAGGAGGAGGUUUAUCGAAUUAUCGCCGGAUGCCUCCAAA [U56A G60C]	< 1e-05	< 1e-05	< 1e-05	
AUAAAAGCGCCAGAACUACAGAAAUGUAGUUGACGAGGAGGAGGUUUAUCGAAUUUCCGUCGGAUGCCUCCAAA [U57C G60U]	< 1e-05	< 1e-05	< 1e-05	< 1e-05
AUAAAAGCGCCAGAACUACAGAAAUGUAGUGGACGAGGAGGAGGGUUAACGAAUUAUCGGCGGAUGCCUCCAAA [U31G U45G U49A U56A]	< 1e-05			< 1e-05
AUAAAAGCGCCAGAAUUACAGAAAUGUAGUUGACGAGGAGGAGGUUUAUCGGAUUUUCGGCGGAUGCCUCGAAA [C16U A52G C71G]	0.000103 ± 3.1e-05	5.85e-05 ± 1.3e-05	0.000175 ± 3.2e-05	
AUAAAAGCGACAGAACUACAGAAAUGUAGUUGACGAGGAGGAGGUUUAUCGAAUUUACGGCGGGUGGCUCAAAA [C10A U57A A64G C67G C71A]	0.000245 ± 7.6e-05		8.51e-05 ± 3.3e-05	
AUAAAAGCGGCAGAACUACAGAAAUGUAGUUGACGAGGAGGAGGCUUAUCGAAUUUUCGGCGGAUGCCUCCAAA [C10G U45C]	< 1e-05		< 1e-05	
AUAAAAGCGCCAGAACUACAGAAAUGUAGUUGACGAGGGGGAGGUUUAUCGAAUUUUUGGCGUAUGCCUCCAAA [A39G C58U G63U]	< 1e-05	< 1e-05		
AUAAAAGCGCCAGAACUACAGAAAUGUAGCUGACGAGGAGGAGGUUUAUCGAAGUUUCGGCGGAUGCAUCCAAA [U30C U54G C68A]	0.000132 ± 4.9e-05			
AUAAAAGCGCCAGAACUACAGAAAUGUAGUUGAUGAGGAGGAGGUUUAUCGAAUUCUCGGCGGAUGCCUCCAAA [C34U U56C]	< 1e-05	< 1e-05	< 1e-05	< 1e-05
AUAAAAGCGCCUGACCUACAGAAAUGUAGUUGACGAGGAGGAGGCUUCUCGAAUUUUCGGCGGAUGCCUCCAAA [A12U A15C U45C A48C]	< 1e-05		< 1e-05	
AUAAAAGCGCCAGAACUACAGAAAUGUAGUUGACGAGGAUGAGGAUUAUCGAAUUGUCGGCGGAUGCCUCCAAA [G40U U45A U56G]	6.56e-05 ± 1.6e-05		0.000611 ± 0.00014	
AUAAAAGCGCCAGAACUACAGAAAUGUAGUUGACGAGGAGGAGGUUUAUCAAAUUUCCGGCGGAUGCCUCCAAA [G51A U57C]	< 1e-05	< 1e-05	< 1e-05	< 1e-05
AUAAAAGCGUCAGAACUACAGAAAUGUAGUUGACGAGGAAGAGGUUUAUCGAAUUUUCGGCGGAUGCCUCCAAA [C10U G40A]	< 1e-05			< 1e-05
AUAAAAGCGCCAGAACUACAGAAAUGUAGUUGACGAGGAGGAGGUAUAUCCGAUUUUCGGCGGAUGCCUCCAAA [U46A G51C A52G]	< 1e-05	< 1e-05	< 1e-05	
AUAAAAGCGCCCGAACUACAGAAAUGUAGUUGACGAGGAGGAGGUUUAUCGAAUUUUCGGCGUAUGCCUCCAAA [A12C G63U]	< 1e-05	< 1e-05		< 1e-05
AUAAAAGCGCCACAACUACAGAAAUGUAGUUGACGGGGAGGAGGUUUAUCGAAUUUUCGGCGCAUGCCUCCAAA [G13C A36G G63C]	< 1e-05	< 1e-05		
AUAAAAGCGCCAGAACUACAGAAAUGUAGUUGACGUGGAGGAGGAUUAUCGAAUUUUCGGCGGAUGCCUCCAAA [A36U U45A]	< 1e-05	< 1e-05		
AUAAAGGCGCUAGAACUACAGAAAUGUAGUUGACGAGGAGGACGUUUAUCGAAUUUUCGGCGGAUGCCUCCAAA [A6G C11U G43C]	< 1e-05	< 1e-05		
AUAAAAGCGCCAGGACUACAGAAAUGUAGUUGACGAGGAGGAGGUUUAUCGAAUUUUCGGGGGAUGCCUCCAAA [A14G C61G]	< 1e-05			
AUAAAAGCGCCAGAACUACAGAAAUGUAGUUGACGAGGAGGAGGUUUAGCGAAUUUUCGUCGGAUGCCUCCAAA [U49G G60U]	< 1e-05	< 1e-05	< 1e-05	
